{"source": "patent US20240262917A1", "about": "“ANTIBODIES AGAINST ALK AND METHODS OF USE THEREOF” (Dana-Farber Cancer Institute, Inc., priority 2021, published 2024)", "key": {"ALK [1]": {"tested_on": "ALK", "assay": "Western blot analysis of ALK in cell lysates and conditioned media", "format": "binding, human", "description": "(§1) (A) Western blot analysis of ALK in Kelly and SHEP neuroblastoma cells overexpressing GFP and mutated ALK using the mAb-7 and 8G7 anti-ALK antibodies. The mAb-7 antibody was developed at the Vigny laboratory (INSERM, Unité 706/Université Pierre et Marie Curie, Paris F-75005, France) (Moog-Lutz et al, 2005; PMID: 15886198) and obtained through a Materials Transfer Agreement. (B) Western blot analysis of ALK expression in various non-neuroblastoma cell lines: H1373 (human […]), HeLa (cervical cancer), NIH-3T3 (transformed mouse fibroblast cells) using 8G7 and C26G7 (rabbit monoclonal C-terminal anti-ALK antibody; Cell Signaling Technology; Cat #3333; RRID:AB_836862) anti-ALK antibodies.\n(§2) The three HPLC-purified monoclonal antibodies (5H3, 7F7 and 8G7) all of the IgG1 subtype, were tested for their ability to bind to ALK in neuroblastoma cells expressing ALK. Both cell lysates and supernatants from cells grown with and without serum (to increase the expression of ALK) were tested by western blotting. […] (A) Western blot analysis of the indicated hybridoma clones in neuroblastoma cell lines expressing WT (NGP) and mutated (SHSY5Y, Kelly) ALK. NIH3T3 cells were used as controls. (B) Western blot analysis of conditioned media from NGP neuroblastoma and 293T cells engineered to express the WT ALK receptor, with the three ALK mAbs showing binding with the shed ALK extracellular domain. […]\nCell lysates were prepared in NP-40 buffer (Invitrogen) containing complete protease inhibitor (Roche), phosphatase inhibitor (Roche) and phenylmethylsulfonyl fluoride (PMSF). Lysates were incubated on ice for 20 min and centrifuged at 16,000 g for 15 min at 4° C. Protein concentrations of the supernatants were determined with the DC protein assay kit (Bio-Rad). Protein samples were denatured using NuPAGE LDS sample buffer (Invitrogen) and NuPAGE sample reducing agent (Invitrogen). Proteins were then separated on precast 4-12% Bis-Tris gels (Invitrogen) and transferred to nitrocellulose membranes (Bio-Rad). […]"}, "full-length ALK receptor": {"molecular_target": "T1, full-length ALK receptor (Homo sapiens, UniProt Q9UM73)", "T1 construct": "endogenous in cells", "T1 sequence (Q9UM73 19-1620)": "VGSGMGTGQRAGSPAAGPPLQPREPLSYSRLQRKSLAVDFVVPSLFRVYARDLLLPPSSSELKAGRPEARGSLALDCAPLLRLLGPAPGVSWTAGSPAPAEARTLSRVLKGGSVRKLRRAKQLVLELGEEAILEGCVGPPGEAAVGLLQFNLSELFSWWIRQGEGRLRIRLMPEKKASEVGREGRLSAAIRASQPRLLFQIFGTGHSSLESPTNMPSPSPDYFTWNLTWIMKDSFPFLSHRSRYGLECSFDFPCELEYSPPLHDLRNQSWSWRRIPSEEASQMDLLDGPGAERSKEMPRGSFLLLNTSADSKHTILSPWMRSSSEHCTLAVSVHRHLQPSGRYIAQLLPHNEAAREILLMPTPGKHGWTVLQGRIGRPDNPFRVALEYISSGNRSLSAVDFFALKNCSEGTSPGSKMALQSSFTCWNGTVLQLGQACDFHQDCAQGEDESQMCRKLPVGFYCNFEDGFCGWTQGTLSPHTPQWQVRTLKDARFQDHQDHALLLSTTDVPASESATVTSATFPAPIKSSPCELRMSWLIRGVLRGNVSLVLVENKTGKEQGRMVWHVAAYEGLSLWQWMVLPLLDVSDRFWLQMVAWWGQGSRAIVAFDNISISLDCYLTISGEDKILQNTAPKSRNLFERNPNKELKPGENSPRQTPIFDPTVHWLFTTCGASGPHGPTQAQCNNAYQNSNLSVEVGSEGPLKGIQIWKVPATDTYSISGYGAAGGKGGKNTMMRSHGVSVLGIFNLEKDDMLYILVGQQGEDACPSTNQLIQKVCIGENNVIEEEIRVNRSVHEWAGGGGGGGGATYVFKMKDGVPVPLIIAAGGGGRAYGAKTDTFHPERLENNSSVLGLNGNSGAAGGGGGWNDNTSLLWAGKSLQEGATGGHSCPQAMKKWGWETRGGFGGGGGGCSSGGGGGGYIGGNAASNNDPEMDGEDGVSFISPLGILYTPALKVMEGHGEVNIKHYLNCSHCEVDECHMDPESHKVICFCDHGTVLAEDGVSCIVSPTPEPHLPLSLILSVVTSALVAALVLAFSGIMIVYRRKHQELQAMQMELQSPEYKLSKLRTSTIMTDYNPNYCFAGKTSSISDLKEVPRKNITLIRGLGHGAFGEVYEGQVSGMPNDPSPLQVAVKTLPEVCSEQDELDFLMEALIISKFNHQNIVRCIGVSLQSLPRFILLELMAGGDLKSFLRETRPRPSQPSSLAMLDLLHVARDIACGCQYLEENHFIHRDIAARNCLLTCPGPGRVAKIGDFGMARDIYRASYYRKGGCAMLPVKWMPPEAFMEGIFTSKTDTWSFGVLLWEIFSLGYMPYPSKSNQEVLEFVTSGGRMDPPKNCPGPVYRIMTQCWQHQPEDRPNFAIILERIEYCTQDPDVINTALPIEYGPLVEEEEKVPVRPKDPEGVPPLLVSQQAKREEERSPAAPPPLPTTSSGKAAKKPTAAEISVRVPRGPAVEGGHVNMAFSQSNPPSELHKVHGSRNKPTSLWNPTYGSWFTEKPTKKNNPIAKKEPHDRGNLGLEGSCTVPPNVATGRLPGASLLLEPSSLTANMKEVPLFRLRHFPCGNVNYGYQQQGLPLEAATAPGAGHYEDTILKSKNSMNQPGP", "assay": "Immunoprecipitation of ALK from neuroblastoma cell lysates", "format": "binding", "settings": "immunoblotting with commercial anti-ALK C-terminal antibody", "description": "Cell lysates from the indicated neuroblastoma cell lines were subjected to immunoprecipitation (IP) using 8G7 and subsequently to immunoblotting analysis using the commercial anti-ALK C-terminal antibody."}, "ALK [2]": {"molecular_target": "ALK (Homo sapiens, UniProt Q9UM73)", "assay": "Western blot analysis of ALK in cell lysates and conditioned media", "format": "binding", "set-up": "endogenous in cells; host or cells: human neuroblastoma lines (NGP, SH-SY5Y, Kelly and others)", "description": "as §1, §2\nCell lysates were prepared in NP-40 buffer (Invitrogen) containing complete protease inhibitor (Roche), phosphatase inhibitor (Roche) and phenylmethylsulfonyl fluoride (PMSF). Lysates were incubated on ice for 20 min and centrifuged at 16,000 g for 15 min at 4° C. Protein concentrations of the supernatants were determined with the DC protein assay kit (Bio-Rad). Protein samples were denatured using NuPAGE LDS sample buffer (Invitrogen) and NuPAGE sample reducing agent (Invitrogen). Proteins were then separated on precast 4-12% Bis-Tris gels (Invitrogen) and transferred to nitrocellulose membranes (Bio-Rad). After blocking in blocking buffer (5% dry milk in TBS with 0.2% Tween-20), membranes were incubated with the primary antibody overnight at 4 °C, washed three times with TBST buffer, chemiluminescent detection performed with the appropriate secondary antibodies and developed using Genemate Blue ultra-autoradiography film (VWR)."}}, "note": "Entries after “also recorded” stand apart in the source; their conditions may differ."}
{"molecule": "8G7: murine monoclonal IgG1 anti-ALK antibody to the N-terminal ECD of human ALK; VH SEQ ID NO: 3, VL SEQ ID NO: 4 (antibody, V domains shown) VH: QVQLQQSGAELVRPGASVTLSCKASGYTFTDYEMHWVKQTPVHGLEWIGAIDPETGGSAYNQKFKAKAILTADRSSSTAYMELRSLTSEDSAVYYCTRTRYYGSSPAMDYWGQGTSVTVSS VL: DIQMTQTTSSLSASLGDRVTISCSASQGIGNYLNWYQQKPDGTVKLLIYYTSSLHSGVPSRFSGSGSGTDYSLTISNLEPEDIATYYCQQYSKLPYTFGGGTKLEIK", "values": [{"measurement": "recognition of ALK in immunoblotting assays", "setting": "ALK [1]", "result": "recognize ALK in immunoblotting assays"}, {"measurement": "specificity of ALK binding by western blot", "setting": "ALK [1]; FIG. 15 and FIG. 25, compared with mAb-7 and C26G7 anti-ALK antibodies", "result": "better specificity compared to commercial Abs; also recorded: binds specifically to the N-terminal region of the ALK protein"}, {"measurement": "immunoprecipitation of ALK", "setting": "full-length ALK receptor", "result": "can immunoprecipitate ALK; also recorded: immunoprecipitated only the full-length 220 kDa form of ALK"}, {"measurement": "ALK protein recognized by western blotting in cell lysates", "setting": "ALK [2]; cell lysates of neuroblastoma cells expressing ALK", "result": "recognized a 220 kDa protein in the cell lysates of neuroblastoma cells; also recorded: detected the 220 kDa full-length protein but not the 140 kDa fragment in cell lysates"}, {"measurement": "ALK protein recognized by western blotting in media", "setting": "ALK [2]; conditioned media of NB cells, shed ECD domain", "result": "an approximately 100 kDa protein in the media; also recorded: ALK fragment with a molecular mass of approximately 100 kDa was identified in the conditioned media of all five NB cell lines"}]}
